From patent publication US20140165223A1, “TNF SUPERFAMILY TRIMERIZATION INHIBITORS” (B.S.R.C. "Alexander Fleming", priority 2011, published 2014)

T1: GST-RANKL (Mus musculus, UniProt O35235)
T1 construct: a cDNA encoding the core ectodomain of murine RANKL residues 158-316, with or without the G278R substitution; made in house; host or cells: Escherichia coli BL21
T1 sequence (O35235 158-316): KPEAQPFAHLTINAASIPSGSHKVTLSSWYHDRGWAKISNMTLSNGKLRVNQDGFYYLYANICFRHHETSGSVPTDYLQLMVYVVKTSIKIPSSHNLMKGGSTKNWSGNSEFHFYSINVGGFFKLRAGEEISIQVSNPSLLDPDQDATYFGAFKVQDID

T2: RANKL (Mus musculus, UniProt O35235)
T2 construct: expressed in transfected cells; host or cells: HEK 293FT
T2 sequence (O35235 1-316): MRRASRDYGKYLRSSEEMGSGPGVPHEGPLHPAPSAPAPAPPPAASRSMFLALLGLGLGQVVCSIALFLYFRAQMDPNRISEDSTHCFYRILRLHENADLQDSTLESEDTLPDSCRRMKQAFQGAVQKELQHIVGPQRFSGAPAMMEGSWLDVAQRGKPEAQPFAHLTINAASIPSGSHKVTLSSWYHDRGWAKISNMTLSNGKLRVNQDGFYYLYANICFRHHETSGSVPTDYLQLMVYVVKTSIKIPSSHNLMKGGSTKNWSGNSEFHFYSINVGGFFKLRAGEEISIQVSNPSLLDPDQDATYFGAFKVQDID

T3: RANKL (Mus musculus, UniProt O35235, G278R)
T3 construct: expressed in transfected cells; host or cells: HEK 293FT
T3 sequence (O35235 1-316 G278R): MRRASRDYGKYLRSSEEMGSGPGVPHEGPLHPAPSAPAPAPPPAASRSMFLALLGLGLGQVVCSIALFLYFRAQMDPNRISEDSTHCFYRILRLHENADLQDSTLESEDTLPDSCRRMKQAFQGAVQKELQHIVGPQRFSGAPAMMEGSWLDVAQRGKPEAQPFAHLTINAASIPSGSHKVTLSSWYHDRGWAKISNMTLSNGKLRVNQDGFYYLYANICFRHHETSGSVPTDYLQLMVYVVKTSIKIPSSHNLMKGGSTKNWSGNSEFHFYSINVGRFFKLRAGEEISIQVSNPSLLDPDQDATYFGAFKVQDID


What was measured:
GST-RANKL [1] = assay: Ex vivo RANKL-induced osteoclast formation (BM cells, M-CSF + GST-RANKL, TRAP staining); assay type: cell-based, mouse; conditions: ratio WT GST-RANKL:GST-RANKL^G278R 0:1
Method: (§1) Instead, WT GST-RANKL (ratio 1:0) induced formation of TRAP+ giant osteoclasts (FIGS. 5A-5C). […] Incubation of WT GST-RANKL with GST at similar concentrations (12.5-100 ng/ml), didn't affect the formation of osteoclasts.
(§2) A novel small molecule inhibitor of TNF trimerization, named SPD304, has been recently reported^[35] to interact with glycine 122 (G122) that corresponds to G278 in RANKL.
(§3) BM cells were collected after flushing out of femurs and tibiae, subjected to gradient purification using FICOLL-PAQUE™ (GE Healthcare), plated in 24-well plates at a density of 5×10^5 cells per well and cultured in αMEM medium (GIBCO) containing 10% fetal bovine serum supplemented with 40 ng/ml RANKL (R&D Systems) and 25 ng/ml M-CSF (R&D Systems) for 5 days. Similarly, splenocytes were collected, plated in 24-well plates at a density of 10^6 cells per well and cultured in the presence of recombinant RANKL and M-CSF for 6 days. GST-RANKL^G278R was pre-incubated with WT GST-RANKL at room temperature for 20 min, prior to the stimulation of the BM cell cultures, in order to enable exchange of the RANKL variants and heterotrimer formation. Small molecule SPD304 (Sigma-Aldrich) was pre-incubated with 80 ng/ml GST-RANKL at various concentrations from 0.25 to 2 μM in αMEM medium for 1 hour at room temperature and then added to culture. Osteoclasts were stained for TRAP activity.

GST-RANKL [2] = biological target: T1, GST-RANKL; assay: as above; assay type: cell-based
Method: as §1, §2, §3

RANK-Fc = biological target: T4, RANK-Fc (Mus musculus, UniProt O35305); assay: Binding assay of GST-RANKL^G278R to RANK; conditions: immobilized protein, serial dilutions of murine RANK-Fc
T4 construct: purchased R&D systems
Method: RANK-Fc interacted with GST-RANKL in a dose-dependent manner, but not with GST-RANKL^G278R or GST.
Nunc plates were coated with recombinant WT GST-RANKL, GST-RANKL^G278R or GST at 3 μg/ml and after blocking with 1% BSA, were incubated with increasing amount of recombinant mouse RANK-Fc (R&D systems). RANK binding was detected with a phycoerythrin (PE) conjugated goat anti-human IgG (Fc) (SouthernBiotech, Birmingham, USA) that was measured (539-573 nm) with the fluorescent plate reader TECAN infinite M200.

RANKL [3] = biological target: T2, RANKL; assay: Trimer formation in transfected HEK 293FT cells (native gel, Western blot); assay type: cell-based; conditions: co-transfection with WT RANKL-FLAG
Method: (§4) Similar to the analysis of recombinant RANKL proteins, trimer formation was detected only in WT RANKL-Myc but not in RANKL^G278R-Myc.
(§5) HEK 293FT cells were transfected with 1 μg plasmid DNA using TransIt-293 transfection reagent (Mirus, Madison, Wis.). After 48 hours, transfected cells were harvested in PBS and the half quantity was diluted in equal volume of 2× Laemmli sample buffer, and analyzed in 12% acrylamide denatured gels. The remaining cells were lysed by sonication, centrifuged, and analyzed in 8% native acrylamide gels.

RANKL [4] = biological target: T3, RANKL; assay: as above; assay type: cell-based; conditions: HEK 293FT, RANKL^G278R-Myc
Method: as §4, §5

T4 sequence (O35305 with tags, fused parts or gaps limits assumed): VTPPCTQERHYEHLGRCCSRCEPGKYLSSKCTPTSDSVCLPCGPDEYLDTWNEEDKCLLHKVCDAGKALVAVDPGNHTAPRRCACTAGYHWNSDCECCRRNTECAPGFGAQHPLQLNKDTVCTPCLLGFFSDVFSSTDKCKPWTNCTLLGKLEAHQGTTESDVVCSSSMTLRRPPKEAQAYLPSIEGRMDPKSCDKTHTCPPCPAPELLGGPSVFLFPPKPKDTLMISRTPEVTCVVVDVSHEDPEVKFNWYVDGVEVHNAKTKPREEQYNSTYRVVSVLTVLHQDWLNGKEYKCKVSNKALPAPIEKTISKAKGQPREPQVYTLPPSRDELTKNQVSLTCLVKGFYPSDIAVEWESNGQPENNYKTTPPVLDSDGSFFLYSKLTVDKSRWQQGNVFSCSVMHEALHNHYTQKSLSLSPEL

Molecule	induction of TRAP+ cells by the variant alone (GST-RANKL [1])	formation of TRAP+ giant multinucleated cells (GST-RANKL [2]; ratio WT GST-RANKL:GST-RANKL^G278R 1:1)	formation of multinucleated TRAP+ osteoclasts (GST-RANKL [2]; ratio WT GST-RANKL:GST-RANKL^G278R 1:2 (50 ng/ml GST-RANKL, 100 ng/ml variant))	formation of TRAP+ giant multinucleated cells (GST-RANKL [2]; ratio WT GST-RANKL:GST-RANKL^G278R 2:1)	formation of giant osteoclast-like cells (GST-RANKL [2]; ratio WT GST-RANKL:GST-RANKL^G278R 4:1 or higher)	binding affinity for RANK-Fc (RANK-Fc)	effect on WT RANKL trimerization (RANKL [3])	own trimer formation in eukaryotic cells (RANKL [4])
GST-RANKL^G278R: murine RANKL ectodomain residues 158-316 with G278R substitution, fused to GST (protein) KPEAQPFAHLTINAASIPSGSHKVTLSSWYHDRGWAKISNMTLSNGKLRVNQDGFYYLYANICFRHHETSGSVPTDYLQLMVYVVKTSIKIPSSHNLMKGGSTKNWSGNSEFHFYSINVGRFFKLRAGEEISIQVSNPSLLDPDQDATYFGAFKVQDID	failed to induce formation of TRAP+ cells	completely impaired the formation of TRAP+ giant multinucleated cells	Complete inhibition in the formation of multinucleated TRAP+ osteoclasts	a small number of TRAP+ giant multinucleated cells was formed	Formation of giant osteoclast-like-cells appeared	completely abolished		
RANKL^G278R: murine RANKL with glycine to arginine substitution at residue 278; soluble or full-length Myc-tagged (protein, UniProt O35235 139-316, looked up, variant G278R, Myc tag, murine RANKL with glycine to arginine substitution at residue 278; soluble or full-length Myc-tagged) Tumor necrosis factor ligand …: FSGAPAMMEGSWLDVAQRGKPEAQPFAHLTINAASIPSGSHKVTLSSWYHDRGWAKISNMTLSNGKLRVNQDGFYYLYANICFRHHETSGSVPTDYLQLMVYVVKTSIKIPSSHNLMKGGSTKNWSGNSEFHFYSINVGRFFKLRAGEEISIQVSNPSLLDPDQDATYFGAFKVQDID							inhibits WT RANKL trimerization	fails to form trimers
